Data from PMC9762590 (PLOS Pathogens, 2022).

B1: 1210 Fab (Fab, V domains shown)
VH: QVQLVESGGGVVQPGRSLRLSCAASGFTFSNYGMHWVRQAPGKGLEWVAVIWYDGSKKYYADSVKGRFTISRDNSKNTLYLQMNSLRAEDTAVYYCARVRDSSDYYGDAFDIWGQGTMVTVSS
VL: DIQMTQSPSTLSASVGDRVTITCRASQSISSWLAWYQQKPGKAPKLLIYKASNLESGVPLRFSGSGSGTEFTLTISSLQPDDFATYYCQQYNNYWTFGQGTKVEIK
B2: monoclonal antibody (mAb) 850 (antibody, V domains shown)
VH: QVQLVESGGGVVQPGRSLRLSCAASGFTFSNFGMHWIRQSPGKGLEWVAIIWYDGSNTYYADSVKGRFTISRDNSKNTLYLQMNSLRAEDTAVYYCAKVWFGESEDNYSVDVWGQGTTVTVSS
VL: DIQMTQSPSTLSTSVGDRVTITCRASQSISNWLAWYQQKPGKAPKLLIYKASTLESGVPSRFSGSGSGTEFTLTISSLQPDDFATYYCQQYSSYWTFGQGTKLEIK
notes: VH of mAb 850 (IGHV3-33); human IgG1 heavy chain constant region (antibodies expressed as fully human IgG1); VK of mAb 850 (IGKV1-5); human Ig kappa constant region (antibodies expressed as fully human IgG1); IgG1, kappa; source: recombinantly expressed as fully human IgG1; re-expressed in CHO-3E7 cells, purified (MabSelect SuRe LX)
B3: Fab 2541 (Fab, V domains shown)
VH: QVQLVESGGGVVQPGRSLRLSCAASGFTFSSYGMHWVRQTTGKGLEWVAIIWHDGSKKYYADSVKGRLTISRDNSKNTLYLQMNSLRVEDTALYYCARVGDYSDFKYGAFDIWGQGTMVTVSS
VL: DIQMTQSPSTLSASVGDRVTITCRASQSISSWLAWYQQKPGKAPNLLIYKASTLESGVPSRFSGSGSGTEFTLTISSLQPDDFATYYCQQYNSYWTFGQGTRVEIK

Legend:
[1] = biological target: T1, NANP5.5-1210 Fab-LS-Th2R nanoparticles (Plasmodium falciparum (3D7/NF54-type …, UniProt Q7K740)); test: BLI; Fabs immobilised on anti-human Fab-CH1 biosensors (10 μg/mL), dipped into nanoparticles; kinetics buffer PBS pH 7.4, 0.01% BSA, 0.002% Tween-20; Octet RED96; conditions: both partners purified
T1 construct: 5.5 NANP repeat motifs of the PfCSP central repeat (NANP5.5); 8-aa linker; Aquifex aeolicus lumazine synthase (LS) monomer; Aquifex aeolicus lumazine synthase (LS) alone, from the co-transfected LS-pHLsec plasmid; 60-mer LS nanocage; source: HEK293F, transient co-transfection, secreted, purified (StrepTrap, SEC on Superose 6); copies: + +
T1 chain: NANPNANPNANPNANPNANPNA

NANP6 peptide = biological target: T2, NANP6 peptide (Plasmodium falciparum (synthetic repeat …, N-terminal biotin-aminohexanoic acid tag; unmodified C-terminus); test: SPR; Carterra LSA, CMD200M chip, 25°C; mAbs directly amine-coupled, PfCSP peptides as analytes (two-fold series, top 8 μg/ml) in 1X HBSTE; 1:1 Langmuir fit; KD includes avidity effect for antigens with multiple repeats; conditions: both partners purified
T2 construct: PfCSP central repeat motifs; source: synthetic peptide (CPC Scientific)
T2 chain: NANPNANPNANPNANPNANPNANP

Row | Binder | binding result [1] | Kd (NANP6 peptide) [pM]
1 | B1 | binds | 
2 | B2 |  | 25
3 | B3 | binds | 
